Experimental data: IntAct's records for PubMed 20723757

B1: Monopolin complex subunit CSM1 (Saccharomyces cerevisiae), P25651 (parent)
chain: MDPLTVYKNSVKQQIDSADLLVANLVNENFVLSEKLDTKATEIKQLQKQIDSLNAQVKELKTQTSQQAENSEVIKDLYEYLCNVRVHKSYEDDSGLWFDISQGTHSGGSSDDYSIMDYKLGFVKGQAQVTEVIYAPVLKQRSTEELYSLQSKLPEYLFETLSFPLSSLNQFYNKIAKSLNKKREKKDETE
B2: Monopolin complex subunit pcs1 (Schizosaccharomyces pombe (strain ATCC 38366 / 972)), O13684 (parent)
chain: MRKNNMQTSKDSELKEQAKGKSSKLIHKLPKQRTRISQGQMHSTQDFVNNEDQDAYSVRENENELHINNSGMSELNKKLQLPNVELSTLSHTQEQEFNELNKLIRKINELQEFYLLEDLAKPVTNAGADADDTIVKDLKKELENEKKANHSLKNELLKTREQIKNYSKINILIKELFGLEVADCIEDEDGYRFNCKNTGRRGTLEYQLLLDDQNFTFTPRLNVQTDEELMKHLPDYLLEEIIFTKEQGKLFSARLMKALQD
partner: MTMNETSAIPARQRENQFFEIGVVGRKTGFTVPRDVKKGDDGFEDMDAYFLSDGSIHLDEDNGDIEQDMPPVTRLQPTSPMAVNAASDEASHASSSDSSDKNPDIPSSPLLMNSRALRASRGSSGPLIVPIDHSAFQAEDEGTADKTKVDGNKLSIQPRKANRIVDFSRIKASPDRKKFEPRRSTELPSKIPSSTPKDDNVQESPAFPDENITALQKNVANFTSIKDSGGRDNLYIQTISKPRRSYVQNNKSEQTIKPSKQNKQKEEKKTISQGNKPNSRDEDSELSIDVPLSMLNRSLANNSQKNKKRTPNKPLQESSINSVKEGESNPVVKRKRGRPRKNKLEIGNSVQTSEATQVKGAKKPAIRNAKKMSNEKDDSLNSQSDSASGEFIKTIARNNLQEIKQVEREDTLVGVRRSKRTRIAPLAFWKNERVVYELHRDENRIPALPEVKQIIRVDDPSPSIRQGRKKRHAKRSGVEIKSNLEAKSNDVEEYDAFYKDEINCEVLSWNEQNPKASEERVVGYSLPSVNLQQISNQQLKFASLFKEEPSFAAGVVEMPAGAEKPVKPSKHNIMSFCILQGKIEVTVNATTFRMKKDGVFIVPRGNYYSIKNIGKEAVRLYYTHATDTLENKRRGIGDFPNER
B3: Monopolin complex subunit pcs1 (Schizosaccharomyces pombe (strain ATCC 38366 / 972)), O13684 (parent)
chain: B2 chain
partner: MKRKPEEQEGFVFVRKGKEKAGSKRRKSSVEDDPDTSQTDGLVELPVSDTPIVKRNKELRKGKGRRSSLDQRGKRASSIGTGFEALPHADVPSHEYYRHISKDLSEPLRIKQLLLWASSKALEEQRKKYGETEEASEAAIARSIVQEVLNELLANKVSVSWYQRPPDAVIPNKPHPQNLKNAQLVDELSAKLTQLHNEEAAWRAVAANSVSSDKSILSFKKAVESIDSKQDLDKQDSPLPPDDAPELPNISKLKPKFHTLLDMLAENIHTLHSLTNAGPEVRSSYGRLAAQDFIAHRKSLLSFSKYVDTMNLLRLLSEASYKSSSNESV

Variants of: B1
Details: with cenpc_yeast MIF2, P35201
Sequence of cenpc_yeast MIF2, P35201 (P35201 whole entry): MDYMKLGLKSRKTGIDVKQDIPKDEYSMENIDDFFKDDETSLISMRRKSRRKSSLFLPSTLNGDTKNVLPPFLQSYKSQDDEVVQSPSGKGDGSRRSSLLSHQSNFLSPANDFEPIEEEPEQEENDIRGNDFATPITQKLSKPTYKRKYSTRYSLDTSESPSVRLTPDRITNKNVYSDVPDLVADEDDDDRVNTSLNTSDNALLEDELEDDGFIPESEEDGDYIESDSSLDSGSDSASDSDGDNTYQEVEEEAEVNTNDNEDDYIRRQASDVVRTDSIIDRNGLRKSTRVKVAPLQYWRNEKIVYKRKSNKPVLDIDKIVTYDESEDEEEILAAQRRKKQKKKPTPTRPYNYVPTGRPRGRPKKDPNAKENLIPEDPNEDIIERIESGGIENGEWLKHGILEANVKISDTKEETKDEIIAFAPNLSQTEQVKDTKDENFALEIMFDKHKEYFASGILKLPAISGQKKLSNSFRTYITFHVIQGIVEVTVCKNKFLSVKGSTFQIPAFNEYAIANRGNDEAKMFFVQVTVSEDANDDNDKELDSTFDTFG

| effect of a mutation on the interaction | Variant |
| --- | --- |
| decreasing interaction | MDPLTVYKNSVKQQIDSADLLVANLVNENFVLSEKLDTKATEIKQLQKQIDSLNAQVKELKTQTSQQAENSEVIKDLYEYLCNVRVHKSYEDDSGLWFDISQGTHSGGSSDDYSIMDYKLGFVKGQAQVTEVIYAPVLKQRSTEELYSLQSKLPEYLFETKSFPLSSLNQFYNKIAKSLNKKREKKDETE [L161K] |
| decreasing interaction | MDPLTVYKNSVKQQIDSADLLVANLVNENFVLSEKLDTKATEIKQLQKQIDSLNAQVKELKTQTSQQAENSEVIKDLYEYLCNVRVHKSYEDDSGLWFDISQGTHSGGSSDDYSIMDYKLGFVKGQAQVTEVIYAPVLKQRSTEELYSLQSKLPEELFETLSFPLSSLNQFYNKIAKSLNKKREKKDETE [Y156E] |

Variants of: B2
Details: with cenpc_schpo cnp3, Q9USR9

| effect of a mutation on the interaction | Variant |
| --- | --- |
| decreasing interaction | MRKNNMQTSKDSELKEQAKGKSSKLIHKLPKQRTRISQGQMHSTQDFVNNEDQDAYSVRENENELHINNSGMSELNKKLQLPNVELSTLSHTQEQEFNELNKLIRKINELQEFYLLEDLAKPVTNAGADADDTIVKDLKKELENEKKANHSLKNELLKTREQIKNYSKINILIKELFGLEVADCIEDEDGYRFNCKNTGRRGTLEYQLLLDDQNFTFTPRLNVQTDEELMKHLPDYLLEEAIFTKEQGKLFSARLMKALQD [I241A] |
| decreasing interaction | MRKNNMQTSKDSELKEQAKGKSSKLIHKLPKQRTRISQGQMHSTQDFVNNEDQDAYSVRENENELHINNSGMSELNKKLQLPNVELSTLSHTQEQEFNELNKLIRKINELQEFYLLEDLAKPVTNAGADADDTIVKDLKKELENEKKANHSLKNELLKTREQIKNYSKINILIKELFGLEVADCIEDEDGYRFNCKNTGRRGTLEYQLLLDDQNFTFTPRLNVQTDEELMKHLPDALLEEIIFTKEQGKLFSARLMKALQD [Y236A] |

Variants of: B3
Details: with mis13_schpo mis13, Q9UUB5

| effect of a mutation on the interaction | Variant |
| --- | --- |
| decreasing interaction | MRKNNMQTSKDSELKEQAKGKSSKLIHKLPKQRTRISQGQMHSTQDFVNNEDQDAYSVRENENELHINNSGMSELNKKLQLPNVELSTLSHTQEQEFNELNKLIRKINELQEFYLLEDLAKPVTNAGADADDTIVKDLKKELENEKKANHSLKNELLKTREQIKNYSKINILIKELFGLEVADCIEDEDGYRFNCKNTGRRGTLEYQLLLDDQNFTFTPRLNVQTDEELMKHLPDYLLEEDIFTKEQGKLFSARLMKALQD [I241D] |
| decreasing interaction | MRKNNMQTSKDSELKEQAKGKSSKLIHKLPKQRTRISQGQMHSTQDFVNNEDQDAYSVRENENELHINNSGMSELNKKLQLPNVELSTLSHTQEQEFNELNKLIRKINELQEFYLLEDLAKPVTNAGADADDTIVKDLKKELENEKKANHSLKNELLKTREQIKNYSKINILIKELFGLEVADCIEDEDGYRFNCKNTGRRGTLEYQLLLDDQNFTFTPRLNVQTDEELMKHLPDYLLEEKIFTKEQGKLFSARLMKALQD [I241K] |
| decreasing interaction | MRKNNMQTSKDSELKEQAKGKSSKLIHKLPKQRTRISQGQMHSTQDFVNNEDQDAYSVRENENELHINNSGMSELNKKLQLPNVELSTLSHTQEQEFNELNKLIRKINELQEFYLLEDLAKPVTNAGADADDTIVKDLKKELENEKKANHSLKNELLKTREQIKNYSKINILIKELFGLEVADCIEDEDGYRFNCKNTGRRGTLEYQLLLDDQNFTFTPRLNVQTDEELMKHLPDYLLEEAIFTKEQGKLFSARLMKALQD [I241A] |
| decreasing interaction | MRKNNMQTSKDSELKEQAKGKSSKLIHKLPKQRTRISQGQMHSTQDFVNNEDQDAYSVRENENELHINNSGMSELNKKLQLPNVELSTLSHTQEQEFNELNKLIRKINELQEFYLLEDLAKPVTNAGADADDTIVKDLKKELENEKKANHSLKNELLKTREQIKNYSKINILIKELFGLEVADCIEDEDGYRFNCKNTGRRGTLEYQLLLDDQNFTFTPRLNVQTDEELMKHLPDALLEEIIFTKEQGKLFSARLMKALQD [Y236A] |
| decreasing interaction | MRKNNMQTSKDSELKEQAKGKSSKLIHKLPKQRTRISQGQMHSTQDFVNNEDQDAYSVRENENELHINNSGMSELNKKLQLPNVELSTLSHTQEQEFNELNKLIRKINELQEFYLLEDLAKPVTNAGADADDTIVKDLKKELENEKKANHSLKNELLKTREQIKNYSKINILIKELFGLEVADCIEDEDGYRFNCKNTGRRGTLEYQLLLDDQNFTFTPRLNVQTDEELMKHLPDELLEEIIFTKEQGKLFSARLMKALQD [Y236E] |
| decreasing interaction | MRKNNMQTSKDSELKEQAKGKSSKLIHKLPKQRTRISQGQMHSTQDFVNNEDQDAYSVRENENELHINNSGMSELNKKLQLPNVELSTLSHTQEQEFNELNKLIRKINELQEFYLLEDLAKPVTNAGADADDTIVKDLKKELENEKKANHSLKNELLKTREQIKNYSKINILIKELFGLEVADCIEDEDGYRFNCKNTGRRGTLEYQLLLDDQNFTFTPRLNVQTDEELMKHLPDKLLEEIIFTKEQGKLFSARLMKALQD [Y236K] |
